Data reported in PMC10564622 (Free Radical Biology & Medicine, 2023).
Several values for one entry are separate records, joined by “and”; a condition that tells them apart may be missing. Equal entries are not always repeated.

Columns and labels:
Details in all cases: both partners purified
[1] = molecular target: T1, CUL3NTD (CUL3 N-terminal domain, residues 1–388, I342R L346D) (human, UniProt Q13618 1-388, I342R | L346D); test: crystal structure; KEAP1_(BTB-3-box) and CUL3NTD mixed 1:1, purified by SEC; sitting drop at 20 °C, 20% PEG 3350, 10% ethylene glycol, 0.2 M potassium citrate tribasic; 3.45 Å, space group C2 2 2_(1)
T1 construct: human CUL3, Uniprot Q13618, residues 1–388, vector pNIC-CTHF, with stabilising mutations I342R and L346D (split-n-express); source: E. coli BL21(DE3)-pRARE2, purified (nickel sepharose, TEV cleavage, SEC); not shown: His6, C-terminal, cleaved; FLAG, C-terminal, cleaved

AF488-labeled CUL3NTD [2] = molecular target: T2, AF488-labeled CUL3NTD (human, UniProt Q13618 1-388, I342R | L346D, AF488 by direct acylation with AF488-Tfp (sites not given)); test: FRET or BRET; TR-FRET protein displacement assay: CoraFluor-1-labeled KEAP1FL + AF488-labeled CUL3NTD, unlabeled protein titrated (cmax 25 μM); assay buffer pH 7.5, 2 h, room temperature; KD from IC50 by Cheng-Prusoff
T2 construct: human CUL3, Uniprot Q13618, residues 1–388, vector pNIC-CTHF, with stabilising mutations I342R and L346D; also called AF488-CUL3NTD; source: E. coli BL21(DE3)-pRARE2, purified (nickel sepharose, TEV cleavage, SEC), labeled with AF488-Tfp; not shown: His6, C-terminal, cleaved; FLAG, C-terminal, cleaved

AF488-labeled CUL3NTD [3] = molecular target: T2, AF488-labeled CUL3NTD; test: FRET or BRET; TR-FRET protein displacement assay: CoraFluor-1-labeled KLHL11_(BTB-BACK) + AF488-labeled CUL3NTD, unlabeled protein titrated (cmax 25 μM); assay buffer pH 7.5, 2 h, room temperature; KD from IC50 by Cheng-Prusoff
[4] = molecular target: biotinylated CUL3NTD (residues 1–389) (human, UniProt Q13618 1-389, I342R | L346D, biotin (on the avi tag)); test: BLI; biotinylated CUL3NTD immobilised on streptavidin tips, KEAP1_(BTB-3-box) in serial dilution; 50 mM HEPES, 300 mM NaCl, 0.5 mM TCEP, 10 mM DTT, 0.01% TWEEN-20; steady-state and kinetic fits, 1:1 model; apparent
Chain of biotinylated CUL3NTD (residues 1–389) (Q13618 1-389 I342R/L346D): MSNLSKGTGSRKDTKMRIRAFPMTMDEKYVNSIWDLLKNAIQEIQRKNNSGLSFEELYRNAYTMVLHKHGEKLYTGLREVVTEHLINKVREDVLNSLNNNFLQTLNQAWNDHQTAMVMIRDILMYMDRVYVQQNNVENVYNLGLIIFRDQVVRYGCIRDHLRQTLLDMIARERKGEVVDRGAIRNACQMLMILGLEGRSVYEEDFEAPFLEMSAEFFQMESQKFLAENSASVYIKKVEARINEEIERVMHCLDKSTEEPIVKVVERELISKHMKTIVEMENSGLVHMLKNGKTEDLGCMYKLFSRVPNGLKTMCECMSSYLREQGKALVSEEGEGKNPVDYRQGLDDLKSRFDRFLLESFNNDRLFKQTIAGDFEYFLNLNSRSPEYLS

T2 sequence (Q13618 1-388 I342R/L346D): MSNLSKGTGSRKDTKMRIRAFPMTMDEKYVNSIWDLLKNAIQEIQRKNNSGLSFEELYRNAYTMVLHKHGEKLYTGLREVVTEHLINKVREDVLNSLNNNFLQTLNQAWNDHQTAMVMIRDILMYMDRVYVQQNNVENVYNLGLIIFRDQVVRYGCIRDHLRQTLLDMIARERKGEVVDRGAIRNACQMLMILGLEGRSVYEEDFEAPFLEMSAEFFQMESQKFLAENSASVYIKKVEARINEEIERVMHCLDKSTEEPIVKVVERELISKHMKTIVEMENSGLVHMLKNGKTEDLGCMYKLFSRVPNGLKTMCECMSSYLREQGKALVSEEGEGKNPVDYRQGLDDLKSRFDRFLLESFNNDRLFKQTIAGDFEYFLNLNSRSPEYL
T1 sequence (Q13618 1-388 I342R/L346D): as above

stoichiometry N [1]: 1 KEAP1 per CUL3 (printed as 2:2)
Kd (AF488-labeled CUL3NTD [2]): 1040 nM
Kd (AF488-labeled CUL3NTD [3]): 720 nM
Kd [4]: 1700 nM and 1400 nM
B1: KEAP1_(BTB-3-box) (human KEAP1 residues 48–213) (domain or fragment, UniProt Q14145 48-213, looked up)
chain: GNRTFSYTLEDHTKQAFGIMNELRLSQQLCDVTLQVKYQDAPAAQFMAHKVVLASSSPVFKAMFTNGLREQGMEVVSIEGIHPKVMERLIEFAYTASISMGEKCVLHVMNGAVMYQIDSVVRACSDFLVQQLDPSNAIGIANFAEQIGCVELHQRAREYIYMHFGE
notes: human KEAP1 (KLHL19), Uniprot Q14145, residues 48–213 (BTB and 3-box), vector pNIC28-Bsa4; Homodimer through the BTB domain by crystallographic symmetry; Residues 51–204 modelled in the structure; also called BTB and 3-box domains of human KEAP1; source: E. coli BL21(DE3)-pRARE2, purified (nickel sepharose, TEV cleavage, SEC); not shown: His6, N-terminal, cleaved
